Measured values reported in patent US20220396788, “RECOMBINANT TRANSPOSON ENDS” (THERMO FISHER SCIENTIFIC BALTICS, UAB, published 2022).
Where a chain is given by its changes, count along the chain named.

B1: Tn-SEQ2.2 (dsDNA)
DNA 1: GTTTTCGCATTTATCGTGAAACGCTTTCGCGTTTTTGCTCTTCCGATCTA
DNA 2: CTAGTAGATCGGAAGAGCAAAAACGCGAAAGCGTTTCACGATAAATGCGAAAAC
B2: Tn-SEQ2.1 (dsDNA)
DNA 1: GTTTTCGCTCTTCCGATCTAACGCTTTCGCGTTTTTCGTGCGCCGCTTCA
DNA 2: CTAGTGAAGCGGCGCACGAAAAACGCGAAAGCGTTAGATCGGAAGAGCGAAAAC
B3: Tn-SEQ1 (dsDNA)
DNA 1: GTTTTAGATGTGTATAAGAGACAGTTTCGCGTTTTTCGTGCGCCGCTTCA
DNA 2: CTAGTGAAGCGGCGCACGAAAAACGCGAAACTGTCTCTTATACACATCTAAAAC
B4: Mu-N0 transposon end (control) (dsDNA)
DNA 1: GTTTTCGCATTTATCGTGAAACGCTTTCGCGTTTTTCGTGCGCCGCTTCA
DNA 2: CTAGTGAAGCGGCGCACGAAAAACGCGAAAGCGTTTCACGATAAATGCGAAAAC
B5: ACGC barcode end (dsDNA)
DNA 1: B4 DNA 1 with G45A, T47G, T48C
DNA 2: B4 DNA 2 with A7G, A8C, C10T
B6: CATG barcode end (dsDNA)
DNA 1: B4 DNA 1 with G45C, C46A, T48G
DNA 2: B4 DNA 2 with A7C, G9T, C10G
B7: TTTC barcode end (dsDNA)
DNA 1: B4 DNA 1 with G45T, C46T, T48C
DNA 2: B4 DNA 2 with A7G, G9A, C10A
B8: TATA barcode end (dsDNA)
DNA 1: B4 DNA 1 with G45T, C46A, T48A
DNA 2: B4 DNA 2 with A7T, G9T, C10A
B9: CGCA barcode end (dsDNA)
DNA 1: B4 DNA 1 with G45C, C46G, T47C, T48A
DNA 2: B4 DNA 2 with A7T, A8G, G9C, C10G
B10: AGAG barcode end (dsDNA)
DNA 1: B4 DNA 1 with G45A, C46G, T47A, T48G
DNA 2: B4 DNA 2 with A7C, A8T, G9C, C10T
B11: CTCT barcode end (dsDNA)
DNA 1: B4 DNA 1 with G45C, C46T, T47C
DNA 2: B4 DNA 2 with A8G, G9A, C10G
B12: GGGA barcode end (dsDNA)
DNA 1: B4 DNA 1 with C46G, T47G, T48A
DNA 2: B4 DNA 2 with A7T, A8C, G9C
B13: ACAT barcode end (dsDNA)
DNA 1: B4 DNA 1 with G45A, T47A
DNA 2: B4 DNA 2 with A8T, C10T
B14: TACG barcode end (dsDNA)
DNA 1: B4 DNA 1 with G45T, C46A, T47C, T48G
DNA 2: B4 DNA 2 with A7C, A8G, G9T, C10A
B15: GTAC barcode end (dsDNA)
DNA 1: B4 DNA 1 with C46T, T47A, T48C
DNA 2: B4 DNA 2 with A7G, A8T, G9A
B16: GCGT barcode end (dsDNA)
DNA 1: B4 DNA 1 with T47G
DNA 2: B4 DNA 2 with A8C

Key:
MuA transposase [1] = biological target: T1, MuA transposase (UniProt P07636 P07636:1-663); assay: EMSA; 8 substitutions (1 sensitive); active (FIG. 13C); conditions: chain copies: 4 (inferred); 5' overhang
Experimental: (§1) MuA transposomes were formed in 1× Complex Assembly Buffer with DMSO. Complex assembly reaction contained equimolar ratio of transposon end (9.3 μM) and MuA transposase (1.65 mg/mL). Components were well-mixed and incubated for one hour at 30° C. After incubation, the complex assembly mix was diluted with dilution buffer (88.0% glycerol, 314.5 mM NaCl, and 2.83 mM EDTA) to the final MuA concentration of 0.919 mg/mL. Complexed MuA transposome was stored at −70° C. for at least 16 hours before use.
(§2) Complex assembly efficiency was evaluated using an electrophoretic mobility shift assay (EMSA) on a 2% agarose gel containing 0.5 μg/mL Ethidium bromide and 87 μg/mL BSA and heparin. Activity was evaluated by fragmenting 100 ng Escherichia virus lambda genomic DNA with 1.5 μL MuA complex in 1× Fragmentation Reaction Buffer (Thermo Scientific™ MuSeek™ Library Preparation Kit, Illumina™ compatible, Cat. No. K1361). Fragmentation was carried out for 5 minutes at 30° C., then stopped by adding 4.4% SDS solution.

MuA transposase [2] = biological target: T1, MuA transposase; assay: EMSA; 8 substitutions (1 sensitive); active (FIG. 13B); conditions: chain copies: 4 (inferred); 5' overhang
Experimental: as §1, §2

MuA transposase [3] = biological target: T1, MuA transposase; assay: EMSA; 13 substitutions (3 sensitive); active (FIG. 13A); conditions: chain copies: 4 (inferred); 5' overhang
Experimental: as §1, §2

MuA transposase [4] = biological target: T1, MuA transposase; assay: EMSA; transposome assembly pH 6.0, 10% DMSO, 30 C 1 h; also fragments lambda DNA (FIG. 5A); conditions: chain copies: 4 (inferred); 5' overhang on non-transferred strand
Experimental: (§3) Analysis was carried out on 2% agarose gel containing 0.5 μg/mL Ethidium bromide and 87 μg/mL BSA and heparin. 5 μL of each loaded sample contains 2 μL of each transposome complex, 1 μL 6× TriTrack DNA Loading Dye (Thermo Scientific, Cat. No. R1161) and 2 μL of water. GeneRuler Low Range DNA Ladder (Thermo Scientific, Cat. No. SM1193) was used.
as §1, with “in 30 mM Tris-HCl, pH 6.0, 10% (v/v) glycerol, 0.005% (w/v) Triton X-100, 30 mM NaCl, 0.02 mM EDTA, and 10%” for “in 1× Complex Assembly Buffer with”, “DMSO. The complex” for “DMSO. Complex”, “end (11.2” for “end (9.3”, “were well mixed” for “were well-mixed”
Complex assembly efficiency was evaluated using an electrophoretic mobility shift assay (EMSA) on a 2% agarose gel containing 0.5 μg/mL ethidium bromide and 87 μg/mL BSA and heparin. Activity was evaluated by fragmenting 100 ng Escherichia virus lambda genomic DNA with 1.5 μL MuA complex in 30 μL of 1× Fragmentation Reaction Buffer (Thermo Scientific™ MuSeek™ Library Preparation Kit, Illumina™ compatible, Cat. No. K1361). […]

MuA transposase [5] = biological target: T1, MuA transposase; assay: EMSA; stable transposome; DMSO, 30 C 1 h; active (FIG. 9); conditions: chain copies: 4 (inferred); 5' overhang
Experimental: as §3, with “FIG. 8 provides EMSA analysis of MuA transposomes that all contain individual unique sequences. Analysis” for “Analysis”, “R1161),” for “R1161)”, “SM1193) marker” for “SM1193)”
as §1, with “with DMSO. The complex assembly reaction” for “with DMSO. Complex assembly reaction”, “well-mixed and placed for incubated for” for “well-mixed and incubated for”

T1 sequence (P07636 whole entry, one chain of several): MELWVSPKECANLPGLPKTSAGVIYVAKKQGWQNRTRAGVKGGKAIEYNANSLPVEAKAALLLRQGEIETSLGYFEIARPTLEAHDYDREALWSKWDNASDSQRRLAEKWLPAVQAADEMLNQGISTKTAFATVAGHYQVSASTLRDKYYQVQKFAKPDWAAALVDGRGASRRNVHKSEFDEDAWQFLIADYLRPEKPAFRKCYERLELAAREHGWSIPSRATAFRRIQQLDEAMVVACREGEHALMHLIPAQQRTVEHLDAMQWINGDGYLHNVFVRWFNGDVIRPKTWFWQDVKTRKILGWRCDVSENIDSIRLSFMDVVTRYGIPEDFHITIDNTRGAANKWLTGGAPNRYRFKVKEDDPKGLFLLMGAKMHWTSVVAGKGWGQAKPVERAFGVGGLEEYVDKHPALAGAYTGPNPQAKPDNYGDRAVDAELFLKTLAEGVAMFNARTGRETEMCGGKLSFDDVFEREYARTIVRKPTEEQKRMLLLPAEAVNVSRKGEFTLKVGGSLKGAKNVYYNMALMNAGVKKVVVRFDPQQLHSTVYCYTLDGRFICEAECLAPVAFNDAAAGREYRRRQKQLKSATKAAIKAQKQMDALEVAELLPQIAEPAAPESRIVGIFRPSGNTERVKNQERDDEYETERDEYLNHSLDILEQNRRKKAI

Row | Binder | binding result (MuA transposase [5]) | other results
1 | B1 |  | binding result (MuA transposase [1]): binds
2 | B2 |  | binding result (MuA transposase [2]): binds
3 | B3 |  | binding result (MuA transposase [3]): binds
4 | B4 |  | binding result (MuA transposase [4]): binds
5 | B5 | binds | 
6 | B6 | binds | 
7 | B7 | binds | 
8 | B8 | binds | 
9 | B9 | binds | 
10 | B10 | binds | 
11 | B11 | binds | 
12 | B12 | binds | 
13 | B13 | binds | 
14 | B14 | binds | 
15 | B15 | binds | 
16 | B16 | binds | 
